Assay results as given in article PMC5347347, “A Localized Complex of Two Protein Oligomers Controls the Orientation of Cell Polarity” (mBio, 2017).
Each block holds one molecule with its values, some of them ahead of it.

Legend:
[1] = molecular target: SpmX-L (SpmX lysozyme-like domain alone, residues 1 to 155) (Caulobacter crescentus); experiment: MST; Atto-488-labelled SpmX* or SpmX-L* held constant at 25 nM; PopZ (max 10 μM), DivJ (max 40 μM) or unlabelled SpmX titrated in 2-fold serial dilutions; incubated 10 min at room temperature; fitted by the law of mass action
[2] = molecular target: SpmX (purified WT SpmX without its transmembrane region, residues 1 to 355) (Caulobacter crescentus); experiment: as above
[3] = molecular target: SpmX E19R (purified) (Caulobacter crescentus); experiment: SEC; analytical size exclusion, Superdex 200 Increase 10/300 GL; apparent masses from a Bio-Rad gel filtration standard; purified SpmX variants alone
[4] = molecular target: PopZ (purified, His-tagged) (Caulobacter crescentus); experiment: SPR; PopZ immobilised on the sensor chip; 2-fold serial dilutions of WT SpmX or SpmX-L injected, with washes between injections
[5] = molecular target: T1, DivJ histidine kinase (purified without its TM regions, His-tagged) (Caulobacter crescentus, UniProt Q03228 189-597); experiment: MST; Atto-488-labelled SpmX* or SpmX-L* held constant at 25 nM; PopZ (max 10 μM), DivJ (max 40 μM) or unlabelled SpmX titrated in 2-fold serial dilutions; incubated 10 min at room temperature; fitted by the law of mass action; conditions: both partners purified
T1 construct: DivJ histidine kinase, Caulobacter crescentus, purified without its TM regions (the cytoplasmic portion); Construct limits are expected in Text S1; also called cytoplasmic portion of DivJ; source: purified, His-tagged
T1 sequence (looked up): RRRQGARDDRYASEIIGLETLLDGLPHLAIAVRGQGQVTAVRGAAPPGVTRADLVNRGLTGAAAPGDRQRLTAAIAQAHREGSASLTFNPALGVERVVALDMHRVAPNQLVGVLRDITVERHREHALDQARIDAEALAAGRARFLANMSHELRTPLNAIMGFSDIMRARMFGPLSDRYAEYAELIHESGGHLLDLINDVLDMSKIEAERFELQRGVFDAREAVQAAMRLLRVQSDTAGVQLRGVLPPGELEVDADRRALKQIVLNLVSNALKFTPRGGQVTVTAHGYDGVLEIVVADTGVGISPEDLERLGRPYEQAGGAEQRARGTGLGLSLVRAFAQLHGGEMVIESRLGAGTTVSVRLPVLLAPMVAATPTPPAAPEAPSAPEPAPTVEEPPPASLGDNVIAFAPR

[6] = molecular target: the molecule itself; experiment: as above

Chain of PopZ (purified, His-tagged) (Caulobacter crescentus) (A0A0H3C7Y4 entry or part of it): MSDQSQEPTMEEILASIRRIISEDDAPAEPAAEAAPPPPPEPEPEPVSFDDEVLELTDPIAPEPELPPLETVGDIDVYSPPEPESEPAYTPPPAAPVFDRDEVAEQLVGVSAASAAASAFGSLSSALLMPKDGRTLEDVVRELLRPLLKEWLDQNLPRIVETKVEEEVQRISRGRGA

Kd [2]: 600 nM
Kd [1]: 120 nM
Molecule: PopZ (purified, His-tagged) (natural protein)

stoichiometry N [3]: 4
Molecule: SpmX E19R (purified) (domain or fragment)

The next lines start with the molecule.

Molecule: DivJ histidine kinase (purified without its TM regions, His-tagged) (from UniProt Q03228 189-597) (domain or fragment)
Kd [1]: 6300 nM

Molecule: SpmX-L (SpmX lysozyme-like domain alone, residues 1 to 155) (domain or fragment)
overall SPR response relative to WT SpmX at comparable concentrations [4]: 2 fold

B1: SpmX (purified WT SpmX without its transmembrane region, residues 1 to 355) (domain or fragment, Caulobacter crescentus, UniProt A0A0H3C9Y4 1-355, looked up)
chain: MKPRHQVSRAAVDLIKRFEGYRQKAAQLPDGRWTVGYGHTLTAREGASVSEKDAEALLLYDLISVAHSVNEHTYTPLNQNQFDALVCFAFNIGLDNFLRSGVLRRINEGSLLQAACAMEMWRKADFEGERIVIDALVRRRSAEKTLFLTPANGEWVPAPSPVLRPKVDYDASCAVPKQTPATVNTRTEGDRVIAQREEGLPLNVVVPEEDAPTATEQSAAAVAARLEAILPETPSAPASMAKPAMRQDDLGLPEPPAPTQPAAMEPAPVLFEAEPQPAPVEPPPAAPVEFTPFRLTPQASEQAEAPVEAPAPTRPAPSEPTLFGAPATGSSVFNLDGFSTSEDATVGVMDVPLVE
modifications: Atto-488 on lysine residues, approximately one dye molecule per protein (only the labelled copy SpmX* held constant in MST; unlabelled as titrant and in SPR, SEC and native gel)
notes: purified without the TM region, residues 1 to 355; predicted monomeric mass 40.1 kDa; Forms higher-order oligomers (void volume in SEC, ladder in native gel); Construct details are in Text S1; also called SpmX-ΔTM; source: purified, His-tagged
Kd [1]: 630 nM
Kd [5]: 510 ± 90 nM
Kd [6]: 360 ± 50 nM
